These results are taken from US20100092465A1, “TREATMENT OF GRAFT-VERSUS-HOST DISEASE” (priority 2006, published 2010).

The target of assay [1] is T1, huIL-27 (Homo sapiens, UniProt Q14213+Q8NEV9).
T1 sequence (Q14213 21-229): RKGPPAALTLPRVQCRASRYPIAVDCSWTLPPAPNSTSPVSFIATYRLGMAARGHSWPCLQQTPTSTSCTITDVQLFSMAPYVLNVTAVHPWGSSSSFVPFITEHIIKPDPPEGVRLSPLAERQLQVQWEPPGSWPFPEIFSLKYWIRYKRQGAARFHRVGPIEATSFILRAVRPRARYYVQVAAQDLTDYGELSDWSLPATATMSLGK
T1 sequence (Q8NEV9 29-243): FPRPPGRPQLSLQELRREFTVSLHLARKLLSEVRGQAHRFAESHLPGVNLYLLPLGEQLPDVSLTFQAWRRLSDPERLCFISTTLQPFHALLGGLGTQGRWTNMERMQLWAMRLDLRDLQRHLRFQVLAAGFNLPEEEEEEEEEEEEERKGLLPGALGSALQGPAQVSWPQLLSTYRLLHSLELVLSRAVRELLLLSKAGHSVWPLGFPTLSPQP
The experiment in a line: Phospho-STAT3 neutralization assay, mouse spleens, huIL-27. It is filed as cell-based. The settings on record: mouse spleens; phospho-STAT3; read-out: EC90 concentration. From the text: (§1) Whole mouse spleens were harvested from C57 B1/6 mice and washed two times with 1×PBS before being plated out at 2×10^5 cells/well in assay media (RPMI 1640 plus 10% fetal bovine serum) in 96-well, round-bottom tissue culture plates. Total human PBMC (peripheral blood mononuclear cells) were thawed from a frozen vial collected from a leukapherisis donation and washed two times with 1×PBS before being plated out at 10^6 cells/well in assay media in 96-well, round-bottom tissue culture plates. […] Following pre-incubation, treatments were added to the plates containing the cells and incubated together at 37° C. for 15 minutes.
(§2) Following incubation, cells were washed with ice-cold wash buffer (BIO-PLEX Cell Lysis Kit, BIO-RAD Laboratories, Hercules, Calif.) and put on ice to stop the reaction according to manufacturer's instructions. […]
(§3) Capture beads (BIO-PLEX Phospho-Stat3 Assay, BIO-RAD Laboratories) were combined with 50 μL of 1:1 diluted lysates and added to a 96-well filter plate according to manufacture's instructions (BIO-PLEX Phosphoprotein Detection Kit, BIO-RAD Laboratories). […] After the final wash, beads were resuspended in 125 μL/well of bead suspension buffer, shaken for 30 seconds, and read on an array reader (BIO-PLEX, BIO-RAD Laboratories) according to the manufacture's instructions. Data were analyzed using analytical softward (BIO-PLEX MANAGER 3.0, BIO-RAD Laboratories). […]

Assay [2] deals with T1, huIL-27. Kind of assay: Phospho-STAT3 neutralization assay, total human PBMCs, huIL-27. It is filed as cell-based. The settings on record: total human PBMCs; phospho-STAT3; read-out: EC90 concentration.
Text: as §1, §2, §3

Another assay has as its target T2, BHK-mIL-27R cells (Mus musculus, UniProt O70394).
T2 construct: expressed in transfected cells; host or cells: BHK cells
T2 sequence (O70394 25-623): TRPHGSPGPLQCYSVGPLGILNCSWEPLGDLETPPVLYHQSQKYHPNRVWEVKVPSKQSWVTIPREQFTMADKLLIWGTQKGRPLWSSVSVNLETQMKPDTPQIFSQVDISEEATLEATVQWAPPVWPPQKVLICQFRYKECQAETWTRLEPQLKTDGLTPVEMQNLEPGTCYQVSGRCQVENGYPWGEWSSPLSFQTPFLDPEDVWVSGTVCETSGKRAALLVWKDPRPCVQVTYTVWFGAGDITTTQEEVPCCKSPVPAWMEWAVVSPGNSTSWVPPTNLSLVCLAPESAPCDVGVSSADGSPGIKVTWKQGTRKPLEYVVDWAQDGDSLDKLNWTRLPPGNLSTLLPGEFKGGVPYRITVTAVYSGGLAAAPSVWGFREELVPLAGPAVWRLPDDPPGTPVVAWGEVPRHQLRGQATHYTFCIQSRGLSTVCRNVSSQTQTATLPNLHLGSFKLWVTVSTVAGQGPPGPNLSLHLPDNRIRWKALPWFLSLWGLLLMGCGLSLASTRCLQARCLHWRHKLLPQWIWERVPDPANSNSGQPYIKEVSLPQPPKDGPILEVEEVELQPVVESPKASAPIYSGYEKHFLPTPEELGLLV
T2 sequence (Q00560 23-917 partner): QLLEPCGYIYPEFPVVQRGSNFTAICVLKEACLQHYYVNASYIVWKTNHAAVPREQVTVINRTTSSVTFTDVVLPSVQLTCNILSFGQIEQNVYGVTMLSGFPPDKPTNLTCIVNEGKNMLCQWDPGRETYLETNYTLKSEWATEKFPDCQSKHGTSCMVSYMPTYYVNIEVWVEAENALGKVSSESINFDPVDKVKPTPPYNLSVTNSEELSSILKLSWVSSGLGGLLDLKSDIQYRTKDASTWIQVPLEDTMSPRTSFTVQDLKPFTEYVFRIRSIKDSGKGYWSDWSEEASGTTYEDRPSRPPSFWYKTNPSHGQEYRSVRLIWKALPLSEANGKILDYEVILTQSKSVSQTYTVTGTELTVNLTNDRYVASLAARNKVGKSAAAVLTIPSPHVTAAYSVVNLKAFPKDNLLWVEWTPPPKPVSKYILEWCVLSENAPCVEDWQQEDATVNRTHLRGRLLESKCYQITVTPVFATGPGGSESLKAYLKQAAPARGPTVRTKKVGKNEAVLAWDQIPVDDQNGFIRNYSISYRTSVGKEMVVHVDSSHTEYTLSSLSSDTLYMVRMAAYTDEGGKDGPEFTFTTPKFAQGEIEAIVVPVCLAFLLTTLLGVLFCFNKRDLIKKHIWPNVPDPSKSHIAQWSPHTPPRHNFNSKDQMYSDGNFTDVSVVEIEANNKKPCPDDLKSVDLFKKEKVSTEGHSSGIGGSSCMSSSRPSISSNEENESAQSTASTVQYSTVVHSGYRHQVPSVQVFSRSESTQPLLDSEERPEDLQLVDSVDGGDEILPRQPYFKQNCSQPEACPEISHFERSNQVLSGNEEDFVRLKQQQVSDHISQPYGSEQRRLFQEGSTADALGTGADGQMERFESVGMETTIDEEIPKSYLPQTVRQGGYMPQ
Kind of assay: Competition binding against 125I-labeled A1426F. The settings on record: 0.1 nM label; competitor 50 nM to 7.6 pM; 4 hours on ice. The method, then:
For competition binding studies, ^125I-labeled A1426F (0.1 nM) was added to preparations of unlabeled A1426F, mouse IL-27 p28 with a C-terminal polyhistidine tag (A1406F), or an unrelated control protein titered from 50 nM to 7.6 pM in 1:3 serial dilutions. These preparations were incubated with BHK-mIL-27R cells for 4 hours on ice. The cells were then washed three times with ice-cold binding buffer, then solublized with 1N NaOH. These lysates were then checked for bound A1426F by checking for radiation with a gamma counter.

Regarding “huIL-27: human IL-27 ligand [reference compound]”, the EC90 in the assay with huIL-27 [1] and with huIL-27 [2] was 2 nM in each case.

For “A1406F: mouse IL-27 p28 with a C-terminal polyhistidine tag”, the “competition with ^125I-labeled A1426F for binding” value with BHK-mIL-27R cells is given as “unable to compete”.
